Experimental data as given in patent US6660837B1, “Modified protein derived from protein kinase N” (Kirin Beer Kabushiki Kaisha, priority 1995, dated 2003).
Values belong to the molecule of their own block, whether it stands above or below them.

Key:
[1] = target: T1, in vitro translated PKNN2 (Homo sapiens, UniProt Q16512); experiment: In vitro binding of GST-HuActSkl fragments to PKNN2; conditions: resistant to 0.5% Triton X-100/0.5 M NaCl wash
T1 construct: made in house; host or cells: in vitro translation in rabbit reticulocyte lysate (Promega)
Protocol: In vitro transcription for the N-terminal region of PKN (the amino acid sequence 1-474, this region being designated as PKNN2 (Example 8)) was performed as described in Example 8. For in vitro translation, cRNAs were translated in rabbit reticulocyte lysate (Promega) in the presence of [^35S] methionine as described in Example 8.
For in vitro binding experiment, 2 μl of in vitro translated PKNN2 was mixed with 5 μg of each GST-α-actinin fusion protein or with 25 μg of GST alone in 400 μl of GST binding buffer (20 mM Tris/HCl at pH 7.5, 0.5 mM DTT, 150 mM NaCl, 0.05% Triton-X100, 1 mM EDTA, 1 μg/ml leupeptin) and incubated for 1 hr at 4° C. After addition of 25 μl of glutathione-Sepharose 4B pretreated with 10 mg/ml of E. coli extract to block nonspecific binding, the binding reaction was continued for additional 30 min at 4° C. The glutathione-Sepharose 4B was then washed four times in GST washing buffer (20 mM Tris/HCl at pH 7.5, 0.5 mM DTT, 1 mM EDTA, 1 μg/ml leupeptin) containing 0.5 M NaCl and 0.5% Triton X-100, and further washed with GST washing buffer. Bound proteins were eluted with GST elution buffer (100 mM Tris/HCl at pH 7.5, 10 mM glutathione, 120 mM NaCl, 1 mM EDTA, 0.5 mM DTT, 1 μg/ml leupeptin) and were subjected to SDS-PAGE. The binding was visualized and quantitated by an imaging analyzer (FUJI BAS1000).

PKN = target: T2, PKN (Rattus norvegicus, UniProt Q63433); experiment: Phosphorylation of recombinant GST-NF domains by PKN; type: biochemical; conditions: GST-head-rod domain of each NF subunit
T2 construct: The purified PKN (1 ng) from rat testis cytosol; from tissue; host or cells: rat testis (cytosol / soluble fraction)
Protocol: (§1) Soluble cytosolic extract of spinal cord or purified NF proteins were boiled for 5 min to destroy endogenous protein kinase activity prior to their use as phosphate acceptors. The phosphorylation of NF preparations was carried out at 30° C. in an assay mixture containing 20 mM Tris/HCl at pH 7.5, 8 mM MgCl2, 100 μM ATP, 185 kBq of [γ-^32P]ATP, each subunit of NF, 20 ng/ml of purified PKN from rat testis, and with/without 40 μM arachidonic acid as indicated in each experiment. Reactions were terminated after various times by the addition of an equal volume of Laemli's sample buffer, and separation was performed on 7% SDS-PAGE. The gels were dried under vacuum and exposure to BAS1000 bio-imaging analyzer. Dephosphorylation of NF proteins was conducted with calf intestine alkaline phosphatase according to a method described in Carden, M. J. et al., J. Biol. Chem. 260, 9805-9817 (1985) and terminated after boiling for 5 min.
(2) Phosphorylation of Recombinant NF by PKN To identify the region containing the phosphorylation site of NF by PKN, GST-head-rod and -tail domain of each subunit of NFs were bacterially synthesized (Example 8), and subjected to in vitro phosphorylation assay in the same manner as described above. […] The GST-tail domain of each subunit was not labeled at all. PKN also phosphorylated the GST-head-rod domain of vimentin (data not shown).

[2] = target: T3, purified PKN from rat testis (Rattus norvegicus, UniProt Q63433); experiment: Phosphorylation of native NF by PKN; type: biochemical; conditions: native bovine NF, with arachidonic acid; estimated by image quant
T3 construct: The purified PKN (1 ng) from rat testis cytosol; from tissue; host or cells: rat testis (cytosol / soluble fraction)
Protocol: Native NFs were prepared from bovine spinal cords according to a method described in Hisanaga, S. & Hirokawa, N., J. Mol. Biol. 202, 297-305 (1988). Kinase assay was carried out according to the following method.
as §1

RhoA^Val14 CLVL^− = target: T4, RhoA^Val14 CLVL^− (Homo sapiens, UniProt P61586, G14V); experiment: Yeast two-hybrid, truncated PKN with RhoA^Val14CLVL^−; type: binding; conditions: yeast L40
T4 construct: expressed in transfected cells; host or cells: yeast strain L40
Excerpt: The cDNA fragments encoding various length of human PKN were inserted into the vector pBTM116 (Example 7) in frame with the upstream LexA DNA-binding domain sequences or the vector pVP16 (Example 7) in frame with the upstream VP16 transcription activation domain sequences. The cDNA fragments encoding human RhoA, RhoA^Val14, and RhoA^Ala37 were obtained by digesting pGEX-RhoA, pGEX-RhoA^Val14, and pGEX-RhoA^Ala37 (Example 1) with restriction enzymes, respectively, then cloned into pBTM116 and pVP16.
The expression plasmids were transfected into yeast L40 cells and plated on semi-solid media lacking tryptophan and leucine. Interaction was examined using a filter lift assay for the β-galactosidase activity in the same manner as in Example 6. […]

T1 sequence (Q16512 1-474): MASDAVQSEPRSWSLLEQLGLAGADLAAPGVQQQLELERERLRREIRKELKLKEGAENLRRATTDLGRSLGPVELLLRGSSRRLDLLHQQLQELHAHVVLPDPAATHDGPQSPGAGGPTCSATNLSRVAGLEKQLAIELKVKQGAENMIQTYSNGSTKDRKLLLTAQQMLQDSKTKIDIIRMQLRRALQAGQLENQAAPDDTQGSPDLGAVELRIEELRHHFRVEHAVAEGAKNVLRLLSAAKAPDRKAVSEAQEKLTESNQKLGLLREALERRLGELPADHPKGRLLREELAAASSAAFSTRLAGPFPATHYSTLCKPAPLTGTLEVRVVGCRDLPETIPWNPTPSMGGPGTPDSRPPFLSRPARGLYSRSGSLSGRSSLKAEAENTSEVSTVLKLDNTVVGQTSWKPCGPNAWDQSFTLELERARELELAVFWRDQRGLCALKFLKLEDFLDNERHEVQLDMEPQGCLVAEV
T2 sequence (Q63433 whole entry, the tested form may be a part): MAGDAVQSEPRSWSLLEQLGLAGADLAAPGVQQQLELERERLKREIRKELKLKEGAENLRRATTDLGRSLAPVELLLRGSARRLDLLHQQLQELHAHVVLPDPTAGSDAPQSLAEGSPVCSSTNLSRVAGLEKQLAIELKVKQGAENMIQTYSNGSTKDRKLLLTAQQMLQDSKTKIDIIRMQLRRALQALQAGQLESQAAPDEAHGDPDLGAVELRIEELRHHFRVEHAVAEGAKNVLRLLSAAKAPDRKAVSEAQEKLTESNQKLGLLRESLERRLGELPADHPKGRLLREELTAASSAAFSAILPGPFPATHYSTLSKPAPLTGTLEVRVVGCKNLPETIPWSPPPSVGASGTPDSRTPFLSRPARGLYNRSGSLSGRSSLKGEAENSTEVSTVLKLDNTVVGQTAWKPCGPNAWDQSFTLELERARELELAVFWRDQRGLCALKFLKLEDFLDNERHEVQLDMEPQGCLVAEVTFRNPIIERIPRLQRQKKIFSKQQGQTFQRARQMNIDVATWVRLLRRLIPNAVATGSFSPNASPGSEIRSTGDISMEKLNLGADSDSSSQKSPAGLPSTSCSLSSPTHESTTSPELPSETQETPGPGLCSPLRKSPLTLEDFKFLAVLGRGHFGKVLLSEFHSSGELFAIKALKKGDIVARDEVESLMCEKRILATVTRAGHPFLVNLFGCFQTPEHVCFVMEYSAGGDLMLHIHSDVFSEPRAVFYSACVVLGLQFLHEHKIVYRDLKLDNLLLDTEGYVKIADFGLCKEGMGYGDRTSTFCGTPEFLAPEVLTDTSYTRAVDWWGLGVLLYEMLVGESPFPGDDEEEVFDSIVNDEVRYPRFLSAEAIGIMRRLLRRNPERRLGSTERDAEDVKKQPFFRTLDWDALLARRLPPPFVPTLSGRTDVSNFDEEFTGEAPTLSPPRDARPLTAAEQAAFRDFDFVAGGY
T3 sequence (Q63433 whole entry): as the sequence (Q63433 whole entry, the tested form may be a part) above
T4 sequence (P61586 1-189 G14V): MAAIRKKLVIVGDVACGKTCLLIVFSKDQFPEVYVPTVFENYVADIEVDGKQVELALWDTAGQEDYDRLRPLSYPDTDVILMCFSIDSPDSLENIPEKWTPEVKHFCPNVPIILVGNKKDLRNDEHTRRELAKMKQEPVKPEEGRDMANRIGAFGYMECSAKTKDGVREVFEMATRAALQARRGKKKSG

binding of in vitro translated PKNN2 to the fragment [1]: strongly bound
B1: HuActSkl (423-653): human skeletal muscle type α-actinin fragment, GST fusion (protein)
chain: ILLQKDYESASLTEVRALLRKHEAFESDLAAHQDRVEQIAAIAQELNELDYHDAVNVNDRCQKICDQWDRLGTLTQKRREALERMEKLLETIDQLHLEFAKRAAPFNNWMEGAMEDLQDMFIVHSIEEIQSLITAHEQFKATLPEADGERQSIMAIQNEVEKVIQSYNIRISSSNPYSTVTMDELRTKWDKVKQLVPIRDQSLQEELARQHANERLRRQFAAQANAIGPWI
modifications: left off: a dimerising Fc or GST
notes: human skeletal muscle type α-actinin fragment, GST fusion

binding of in vitro translated PKNN2 to the fragment [1]: strongly bound
B2: HuActSkl (653-837): human skeletal muscle type α-actinin fragment, GST fusion (protein)
chain: IQNKMEEIARSSIQITGALEDQMNQLKQYEHNIINYKNNIDKLEGDHQLIQEALVFDNKHTNYTMEHIRVGWELLLTTIARTINEVETQILTRDAKGITQEQMNEFRASFNHFDRRKNGLMDHEDFRACLISMGYDLGEAEFARIMTLVDPNGQGTVTFQSFIDFMTRETADTDTAEQVIASFRI
modifications: left off: a dimerising Fc or GST
notes: as for B1

relative 32P incorporation into GST-head-rod domain (ratio NFH:NFM:NFL) (PKN): 10
extent of maximal phosphorylation by PKN per mol subunit of protein [2]: about 6 mol/mol
B3: NFM: neurofilament subunit M; native bovine in b342, GST-head-rod domain fusion in b344 (protein, UniProt O77788 2-926, looked up)
Neurofilament medium …: SYTLDSLGNPSAYRRVTETRSSFSRISGSPSSGFRSQSWSRGSPSTVSSSYKRSALAPRLTYSSAMLSSAESSLDFSQSSSLLDGGSGPGGDYKLSRSNEKEQIQGLNDRFAGYIEKVHYLEQQNKEIEAEIQALRQKQASHAQLGDAYDQEIRELRATLEMVNHEKAQVQLDSDHLEEDIHRLKERFEEEARLRDDTEAAIRALRKDIEESSLVKVELDKKVQSLQDEVAFLRSNHEEEVADLLAQIQASHITVERKDYLKTDISTALKEIRSQLESHSDQNMHQAEEWFKCRYAKLTEAAEQNKEAIRSAKEEIAEYRRQLQSKSIELESVRGTKESLERQLSDIEERHNHDLSSYQDTIQQLENELRGTKWEMARHLREYQDLLNVKMALDIEIAAYRKLLEGEETRFSTFAGSITGPLYTHRQPSIAISSKIQKTKVEAPKLKVQHKFVEEIIEETKVEDEKSEMEEALTAITEELAVSVKEEVKEEEAEEKEEKEEAEEEVVAAKKSPVKATAPELKEEEGEKEEEEGQEEEEEEEEAAKSDQAEEGGSEKEGSSEKEEGEQEEEGETEAEGEGEEAAAEAKEEKKMEEKAEEVAPKEELAAEAKVEKPEKAKSPVAKSPTTKSPTAKSPEAKSPEAKSPTAKSPTAKSPVAKSPTAKSPEAKSPEAKSPTAKSPTAKSPAAKSPAPKSPVEEVKPKAEAGAEKGEQKEKVEEEKKEAKESPKEEKAEKKEEKPKDVPEKKKAESPVKAESPVKEEVPAKPVKVSPEKEAKEEEKPQEKEKEKEKVEEVGGKEEGGLKESRKEDIAINGEVEGKEEEQETKEKGSGGEEEKGVVTNGLDVSPGDEKKGGDKSEEKVVVTKMVEKITSEGGDGATKYITKSVTVTQKVEEHEETFEEKLVSTKKVEKVTSHAIVKEVTQSD

interaction with RhoA^Val14 CLVL^− (β-galactosidase filter assay) (RhoA^Val14 CLVL^−): interacted
B4: amino acid sequence 3-135: truncated human PKN, amino acid sequence 3-135 in SEQ ID NO: 1, two-hybrid fusion (protein, UniProt Q16512 3-135, looked up, fragment)
chain: SDAVQSEPRSWSLLEQLGLAGADLAAPGVQQQLELERERLRREIRKELKLKEGAENLRRATTDLGRSLGPVELLLRGSSRRLDLLHQQLQELHAHVVLPDPAATHDGPQSPGAGGPTCSATNLSRVAGLEKQL
modifications: two-hybrid fusion

binding of in vitro translated PKNN2 to the fragment [1]: not
B5: HuActSkl (604-719): human skeletal muscle type α-actinin fragment, GST fusion (protein)
chain: MDELRTKWDKVKQLVPIRDQSLQEELARQHANERLRRQFAAQANAIGPWIQNKMEEIARSSIQITGALEDQMNQLKQYEHNIINYKNNIDKLEGDHQLIQEALVFDNKHTNYTMEH
modifications: left off: a dimerising Fc or GST
notes: as for B1

relative 32P incorporation into GST-head-rod domain (ratio NFH:NFM:NFL) (PKN): 2
extent of maximal phosphorylation by PKN per mol subunit of protein [2]: about 1 mol/mol
B6: NFL: neurofilament subunit L; native bovine in b342, GST-head-rod domain fusion in b344 (protein, UniProt P02548 2-555, looked up)
Neurofilament light …: SSFSYEPYYSTSYKRRYVETPRVHISSVRSGYSTARSAYSSYSAPVSSSLSVRRSYSSSSGSLMPSLESLDLSQVAAISNDLKSIRTQEKAQLQDLNDRFASFIERVHELEQQNKVLEAELLVLRQKHSEPSRFRALYEQEIRDLRLAAEDATNEKQALQGEREGLEETLRNLQARYEEEVLSREDAEGRLMEARKGADEAALARAELEKRIDSLMDEIAFLKKVHEEEIAELQAQIQYAQISVEMDVSSKPDLSAALKDIRAQYEKLAAKNMQNAEEWFKSRFTVLTESAAKNTDAVRAAKDEVSESRRLLKAKTLEIEACRGMNEALEKQLQELEDKQNADISAMQDTINKLENELRTTKSEMARYLKEYQDLLNVKMALDIEIAAYRKLLEGEETRLSFTSVGSLTTGYTQSSQVFGRSAYGGLQTSSYLMSARSFPSYYTSHVQEEQIEVEETIEAAKAEEAKDEPPSEGEAEEEEKEKEEAEAEAEAEAEAEAEEEEGAQEEEAAKEDAEEAKEEEGGEGEEAEETKEAEEEEKKDEGAGEEQATKKKD

binding of in vitro translated PKNN2 to the fragment [1]: strongly bound
B7: HuActSkl (486-607): human skeletal muscle type α-actinin fragment, spectrin-like repeat 3, GST fusion (protein, UniProt P35609 486-607, looked up, fragment)
chain: ICDQWDRLGTLTQKRREALERMEKLLETIDQLHLEFAKRAAPFNNWMEGAMEDLQDMFIVHSIEEIQSLITAHEQFKATLPEADGERQSIMAIQNEVEKVIQSYNIRISSSNPYSTVTMDEL
modifications: GST fusion
notes: human skeletal muscle type α-actinin fragment, spectrin-like repeat 3, GST fusion
